# Test results from US8470576B2, “Group of novel enantioselective microbial nitrile hydratases with broad substrate specificity” (B.R.A.I.N. AG, priority 2006, dated 2013).
# Where a chain is given by its changes, count along the chain named.
# B1: NHase Seq ID No. 2 and 4: nitrile hydratase of Raoultella terrigena strain 77.1, α-subunit SEQ ID NO 2, β-subunit SEQ ID NO 4 (protein)
# alpha: MSHKHDHDHTEPPVDIELRVRALESLLQEKGLIDPAALDELIDTYEHKVGPRNGAQVVARAWSDPEYKRRLMENATAAISELGFSGIQGEDMLVVENTPDVHNVTVCTLCSCYPWPVLGLPPVWYKSAPYRSRIVIDPRGVLAEFGLHIPESKEIRVWDSSAELRYLVLPERPAGTDGWSEAQLSELISRDSMIGTGVVTAP
# beta: MNGIHDLGGMHGFGPIPTEENEPYFHHEWERRVFPMFASLFVGVHFNVDEFRHSIECMPPADYLQSSYYEHWLHAFETLLLAKGVITVDELWGGAKPTLCKPGTPVLTQDMVSMVVSTGGSARVSHDVAPRFRVGDRVRTKNFNPTTHTRLPRYARDKVGRIEIAHGVFITPDTAAHGLGEHPQHVYSVSFTAQELWGEPRPDNVFIDLWDDYLEEA
# modifications: Raoultella terrigena, strain 77.1
# B2: NHase Seq ID No. 18 and 20: nitrile hydratase of Klebsiella oxytoca strain 38.1.2, α-subunit SEQ ID NO 18, β-subunit SEQ ID NO 20 (protein)
# alpha: B1 alpha with E11Q, S80A, S152N, D177E, S189T
# beta: MNGIHDLGGMHGLGPIPTEENEPYFHHEWERRVFPLFASLFVGGHFNVDEFRHAIERMAPTEYLQSSYYEHWLHAFETLLLAKGVITVEELWGGAKPAPCKPGTPVLTQEMVSMVVSTGGSARVSHDVAPRFRVGDWVRTKNFNPTTHTRLPRYARDKVGRIEIAHGVFITPDTAAHGLGEHPQHVYSVSFTAQALWGEPRPDKVFIDLWDDYLEEA
# modifications: Klebsiella oxytoca, strain 38.1.2
# Experiments:
# [1] = Dependence of NHase activity on the pH; assay type: biochemical
# Protocol: (§1) Cell free crude extracts from Raoultella terrigena (77.1) were incubated for 5 min at 30° C. and the indicated pH-values. The reaction was subsequently started by addition of substrate (1 mM PPN). The activity was determined as described in example 4. Buffers used: McIlvaine buffer: ˜0.1 M citrate/phosphate-buffer; Tris-buffer: 0.1 M Tris/HCl-buffer
# as §1, with “E. coli BL21 (DE3) pET22-77.1a/pET26—77.1b” for “Raoultella terrigena (77.1)”
# Cell free crude extracts from Klebsiella sp. (77.1) and E. coli BL21 (DE3) pET22—77.1a/pET26—77.1b were incubated for 5 min at 30° C. and the indicated pH-values. The reaction was subsequently started by addition of substrate (1 mM PPN). The activity was determined as described in example 4. Buffers used: McIlvaine buffer: ˜0.1 M citrate/phosphate-buffer
# (§2) Lyophilized cells were incubated for 5 min at the indicated pH-values. The reaction was subsequently started by addition of substrate (1 mM PPN). The activity was determined as described in example 4. Buffers used: McIlvaine buffer: ˜0.1 M citrate/phosphate-buffer; Tris-buffer: 0.1 M Tris/HCl-buffer
# as §2, with “Cell free crude extracts” for “Lyophilized cells”
# If not otherwise indicated enzyme samples were prepared as follows: the cells from 1 ml of the culture were washed with 50 mM Tris/HCl pH 7.5 and resuspended in 750 μl of the same buffer. This suspension was incubated at 30° C. in a thermomixer at 1000 rpm. The biotransformation was started by addition of the substrate 2-phenylpropionitrile (PPN) in 50 mM Tris/HCl pH 7.5. The concentration of the substrate was 1 mM, if not otherwise stated. The reaction was stopped after 1 min, 5 min or 10 min as indicated by addition of 1 M HCl. Cells were removed by centrifugation and the supernatant analysed by HPLC for the presence of the corresponding amide. The HPLC analysis was carried out on a system comprising a Surveyor 4 channel Pump, AutoSampler and UVNIS detector at 210 nm from Thermo Finnigan on a Grom-Sil 1200DS-3 cp 3 μm (125×4.6 mm) reverse phase column. As mobile phase, acetonitrile and 0.3% H3PO4 were used in a ratio of 50:50 at a flow of 0.7 ml/min, respectively.
# The pH-optimum for the enzyme according to Seq ID No. 2 and 4 (Raoultella terrigena, 77.1) has its pH-optimum at pH 6.75 (FIG. 27).
# The NHase according to Seq ID. No. 18 and 20 (Klebsiella oxytoca, 38.1.2) was determined to be between pH 7.0-pH 7.5 (FIG. 28 and FIG. 29). […] At a pH 10, the residual activity of the enzyme is about 65-75%.
# [2] = Determination of the isoelectric point (Phast-System); assay type: physicochemical; settings: purified enzyme
# Protocol: The IEP of the purified enzyme according to Seq. ID No. 2 and 4 was determined to be 3.5-3.6 using the Phast-System (Amersham Pharmacia).
# [3] = Enantioselectivity of NHases towards rac-mandelonitrile (washed cells, chiral HPLC); assay type: biochemical; settings: for enantiopreference: (R/S)-mandelonitrile; for Eapp-value: kinetic resolution of (R/S)-mandelonitrile; for Eapp-value heterologously expressed / Eapp-value homologously expressed: rac-mandelonitrile; for Eapp-value heterologously expressed: heterologously expressed NHase; for Eapp-value homologously expressed: homologously expressed NHase
# Protocol: For the determination of enantioselectivity towards rac-mandelonitrile and 2-phenylpropionitrile 40-50 mg of washed cells were resuspended in 1 ml of 50 mM Tris/HCl pH 7.5. 100 μl of cell suspension were mixed with 800 μl 50 mM Tris/HCl pH 7.5 and incubated at 30° C. in a thermomixer at 1000 rpm. The biotransformation was started by addition of 100 μl of 10 mM rac-mandelonitrile or rac-2-phenylpropionitrile in 50 mM Tris/HCl pH 7.5. The reaction was stopped by addition of 100 μl 1M HCl after 1, 5 or 10 min. Cells were removed by centrifugation and the supernatant analysed by chiral HPLC for the presence of mandeloamide and phenylpropionamide, respectively. rac-Mandeloamide was analysed on a HPLC comprising a Surveyor 4 channel Pump, AutoSampler and UVNIS detector at 210 nm from Thermo Finnigan on a Nucleodex β-OH column (Macherey & Nagel) using 50% methanol/water:water (40:60) as mobile phase at a flow rate of 0.7 ml/min. The apparent enantiomeric ratio (Eapp) of the conversion of mandelonitrile was calculated according to Straathof and Jongejan for […] (see example 9). In case of 2-phenylpropionamide, the samples were lyophilized and resuspended in n-hexane: 2-propanol (80:20). Prior to injection, the samples were additionally dried with sodium sulfate and were centrifugated at 16,000 g for 5 min. The supernatants were analyzed using a Chiracel OD column (Daicel) on a Spectra System (AS3000, P2000, UV2000 at 210 nm) from Thermo Separation Products with n-hexane: 2-propanol (80:20) as mobile phase at a flow rate of 0.5 ml/min. The enantiomeric ratio (E) of the conversion of PPN was calculated according to Chen et al. […]
Molecule,pH-optimum ([1]; 1 mM PPN),residual activity at pH 4.0 ([1]; homologously produced enzyme),residual activity at pH 10 [1],activity at pH<6.0 ([1]; recombinantly produced enzyme),IEP [2],enantiopreference [3],Eapp-value [3],Eapp-value heterologously expressed [3],Eapp-value homologously expressed [3],activity at pH-value<6 ([1]; crude cell extracts),residual activity at pH 3.0 ([1]; lyophilized cells)
B1,6.75,about 6%,about 27%,no activity,3.5-3.6,(S),20,20,19,,
B2,,,65-75%,,,(S),19,19,17,inactivated,about 10%
